{
  "source": "patent US20250269046A1",
  "about": "“CELLULAR UPTAKE OF LARGE BIOMOLECULES ENABLED BY CELL-SURFACE-REACTIVE CELL-PENETRATING PEPTIDE ADDITIVES” (FORSCHUNGSVERBUND BERLIN E.V., priority 2021, published 2025)",
  "key": {"[1]": {"molecular_target": "endogenous mitochondrial receptor TOMM20 (in HeLa CCL-2 cells) (UniProt Q15388)", "sequence (Q15388 whole entry)": "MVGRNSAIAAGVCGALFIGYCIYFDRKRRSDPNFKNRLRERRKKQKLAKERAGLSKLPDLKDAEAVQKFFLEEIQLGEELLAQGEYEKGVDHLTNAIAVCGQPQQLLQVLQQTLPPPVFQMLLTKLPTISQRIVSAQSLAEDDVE", "experiment": "cell-based or functional assay"}, "[2]": {"molecular_target": "Lifeact-mVenus (GFP mutant, expressed in transfected HeLa CCL-2 cells)", "experiment": "confocal microscopy of live HeLa CCL-2 cells transfected with Lifeact-mVenus after delivery of 500 nM antibody with TNB-R10; colocalization of antibody and mVenus signals"}},
  "data": [
    {"substance": "Anti-Tom20/Tomm20, clone 2F8.1 (antibody)", "values": [
      {"measurement": "pearson correlation coefficient (PCC) of the colocalization of the delivered antibody with the mitochondrial marker MitoTracker Red CMXRos", "setting": "[1]", "result": 0.58}
    ]},
    {"substance": "Alexa Fluor 594 anti-GFP Antibody, Clone 1GFP63", "values": [
      {"measurement": "pearson correlation coefficient (PCC) of colocalization", "setting": "[2]", "result": 0.8}
    ]}
  ]
}
